Assay results: patent US20080020405A1, “Protein binding determination and manipulation” (priority 2002, published 2008)

Biological target: T1, WT SCCE (Stratum Corneum Chymotryptic Enzyme) (Homo sapiens, UniProt P49862)
T1 construct: made in house; host or cells: High 5 insect cells, transient transfection with pIE1-153A V4+ plasmid, protein secreted into the medium, Ni-NTA purified
Assay: Panning of the 6mer tandem phage peptide display library against WT SCCE, four rounds, clones sequenced
Type: binding
Details: for Hypervarible Domain, DNA sequence of clone, 6 mer Lib Panning Round 4 SCCE WT / Hypervarible Domain, peptide sequence of clone, 6 mer Lib Panning Round 4 SCCE WT: 6mer library, panning round 4 against SCCE WT; for Hypervarible Domain, DNA sequence of clone, 6 mer Lib Panning Round 4 SCCE WT: flanking TGC (Cys) codons; for Hypervarible Domain, peptide sequence of clone, 6 mer Lib Panning Round 4 SCCE WT: translated hexapeptide
Method: Packaging of Phagemids from Cells • 1. Re-suspend the complete lawns of the E. coli cells in 20 ml of LB/Amp/Tc medium and use 2 ml for inoculation of 50 ml LB/Amp/Tc medium (250 ml Erlenmeyer flask). • 1. Incubate at 180 rpm and 37° C. for 1 hour, add […] of M13K07 stock solution (10^11-10^12 cfu/ml) and incubate for 15 minutes at 37° C. without shaking. • 2. Allow the culture to shake at 37° C. for 45 min, then add Kanamycin (final concentration of 50 μg/ml) and continue the incubation at 37° C. @ 180 rpm overnight. • 3. The next day, centrifuge for 15 minutes at 8,000 rpm and 4° C. (GS3 rotor, Sorvall RC5C). • 4. Transfer the supernatant into a new centrifuge bottle and centrifuge again. • 5. Transfer the supernatant again, add 0.15 vol of PEG/NaCl solution, mix and incubate on ice for at least 2 hours. • 6. Centrifuge for 40 minutes at 8,000 rpm (GS3 rotor) • 7. Decant the supernatant, repeat the centrifugation for 1 minute at 4,000 rpm and remove last traces of supernatant using a pipet. • 8. Re-suspend each PEG-pellet in 1.0 ml PBS solution and collect the re-suspended phages in one SS34 centrifuge bottle • 9. To clear the suspension, centrifuge again for 10 minutes at 12,000 rpm (SS34 rotor). • 10. Recover the supernatant (pipet), add NaN3 to a final concentration of 0.02% and store the library at 4° C. Determination of Phagemid (Library) Titer (Colony Forming Units [CFU] Assay) • 1. Inoculate 20 ml of LB/Tc (20 μg/ml) medium with 200 μl of an E. coli WK6λmutS overnight culture (37° C.; LB/Tc) and incubate at 37° C. and 180 rpm for 2 to 3 hours (OD600=0.5) • 2. Fill 12 wells of a sterile 96-well culture dish with 90 μl of autoclaved water and prepare dilution series by transferring 10 μl aliquots of the library stock (dilutions 10^−1 to 10^−12). • 3. Add 100 μl of logarithmic growing cells, mix and incubate for 30 min at 37° C. • 4. Spot 20 μl portions of each well on LB/Amp/Tc agar plates and incubate over night at 37° C. • 5. As a control use 20 μl of non-infected log-phase cells spotted on LB/Amp/Tc and LB/Tc agar plates. • 6. Count the number of colonies on the next day and determine the titer. Panning Protein Targets • WT SCCE is the Stratum Corneum Chymotryptic Enzyme subdloned in the pIE vector and adapted with a carboxy-terminal polyglycine linker and polyhistidine sequence to facilitate purification and immobilization (see WT SCCE preparation below). The adaptations were performed using a QuickChange mutagenesis kit. The sequence is listed in document SCCE His6 pIE.doc. • Fyn SCCE is the Stratum Corneum Chymotryptic Enzyme adapted with a polyglycine liker, the Fyn SH3 domain and additional polyglycine linker and a polyhistidine sequence (see Fyn SCCE preparation below). The final sequence is listed in document SCCE FYN His6 pIE.doc. The modifications to create Fyn SCCE were performed using WT SCCE as a template using a QuickChange mutagenesis kit. • The expression and purification of WT SCCE and Fyn SCCE are presented in document SCCE production.doc Pre-Adsorption of Library with Matrix to Remove Non-Specific Binding • 1. Take 25 μl Ni-NTA Magnetic Agarose Beads (Qiagen) in a 1.5 ml tube (siliconized), labeled pre-adsorption library. • 2. Place in Magnet and remove Sup. • 3. Wash 2 times (2 min each time) with 500 μl Ni-NTA Binding Buffer (50 mM NaH2PO4 pH8.0, 300 mM NaCl, 10 mM Imidazole) to equilibrate beads to Immidizole. • 4. Add 200 μl TBS-T 0.1% BSA+200 μl (10^12 phage) of 6mer library to tube labeled pre-adsorption library (to remove phage that stick non-specifically to the beads). • 5. Incubate @ room temperature for 1 h w/rotation. Coating Matrix with Target Protein • 6. Take 25 μl Ni-NTA Magnetic Agarose Beads (Qiagen) in 2 separate 1.5 ml Ep tubes (siliconized), labeled SSCE-WT and SCCE-FYN. • 7. Place in Magnet and remove Sup. • 8. Wash 2 times (2 min each time) with (500 μl) Ni-NTA Binding Buffer (50 mM NaH2PO4 pH8.0, 300 mM NaCl, 10 mM Imidazole) to equilibrate beads to Immidizole. • 9. […]

T1 sequence (P49862 30-253): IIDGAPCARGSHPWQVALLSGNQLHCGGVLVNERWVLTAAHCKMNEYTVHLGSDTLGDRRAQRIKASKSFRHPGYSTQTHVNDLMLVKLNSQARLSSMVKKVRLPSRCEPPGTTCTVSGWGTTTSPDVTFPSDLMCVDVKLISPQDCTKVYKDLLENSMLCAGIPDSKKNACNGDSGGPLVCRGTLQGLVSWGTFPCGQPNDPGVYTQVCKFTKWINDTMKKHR

Row | Substance | Hypervarible Domain, DNA sequence of clone, 6 mer Lib Panning Round 4 SCCE WT | Hypervarible Domain, peptide sequence of clone, 6 mer Lib Panning Round 4 SCCE WT | Clone sequence also found in the other panning (remark) (panning round 4 SCCE WT)
1 | 041307_3 (QPHTWK; printed: Gln Pro His Thr Trp Lys) | TGCCAGCCGCATACGTGGAAGTGC | Gln Pro His Thr Trp Lys | (Also in SCCE FYN)
2 | 041307_4 (TAAVDQ; printed: Thr Ala Ala Val Asp Gln) | TGCACGGCTGCGGTGGATCAGTGC | Thr Ala Ala Val Asp Gln | –
3 | 041307_5 (KQNSEA; printed: Lys Gln Asn Ser Glu Ala) | TGCAAGCAGAATAGTGAGGCGTGC | Lys Gln Asn Ser Glu Ala | –
4 | 041307_7 (PVAETP; printed: Pro Val Ala Glu Thr Pro) | TGCCCTGTGGCGGAGACGCCTTGC | Pro Val Ala Glu Thr Pro | –
5 | 041307_8 (TPNSAI; printed: Thr Pro Asn Ser Ala Ile) | TGCACGCCTAATTCTGCGATTTGC | Thr Pro Asn Ser Ala Ile | –
6 | 041307_10 (SHVRRN; printed: Ser His Val Arg Arg Asn) | TGCAGTCATGTTAGGCGTAATTGC | Ser His Val Arg Arg Asn | –
7 | 041307_11 (HHGLIV; printed: His His Gly Leu Ile Val) | TGCCATCATGGGCTTATTGTGTGC | His His Gly Leu Ile Val | –
8 | 041307_12 (YAKTMR; printed: Tyr Ala Lys Thr Met Arg) | TGCTATGCGAAGACGATGCGGTGC | Tyr Ala Lys Thr Met Arg | –
9 | 041307_17 (HHGLIV; printed: His His Gly Leu Ile Val) | TGCCATCATGGGCTTATTGTGTGC | His His Gly Leu Ile Val | –
10 | 041307_18 (HHGLIV; printed: His His Gly Leu Ile Val) | TGCCATCATGGGCTTATTGTGTGC | His His Gly Leu Ile Val | –
11 | 041307_19 (HHGLIV; printed: His His Gly Leu Ile Val) | TGCCATCATGGGCTTATTGTGTGC | His His Gly Leu Ile Val | –
12 | 041307_22 (HHGLIV; printed: His His Gly Leu Ile Val) | TGCCATCATGGGCTTATTGTGTGC | His His Gly Leu Ile Val | –
13 | 041307_25 (TPKAKP; printed: Thr Pro Lys Ala Lys Pro) | TGCACTCCTCTGGCGCTTCCTTGC | Thr Pro Lys Ala Lys Pro | –
14 | 041307_27 (KKKKTK; printed: Lys Lys Lys Lys Thr Lys) | TGCAAGAAGAAGAAGACGAAGTGC | Lys Lys Lys Lys Thr Lys | –
15 | 041307_29 (HHGLIV; printed: His His Gly Leu Ile Val) | TGCCATCATGGGCTTATTGTGTGC | His His Gly Leu Ile Val | –
16 | 041307_30 (PNNKIR; printed: Pro Asn Asn Lys Ile Arg) | TGCCCGAATAATAAGATTAGGTGC | Pro Asn Asn Lys Ile Arg | –
17 | 041307_31 (TSTRPP; printed: Thr Ser Thr Arg Pro Pro) | TGCACTTCTACTAGGCCTCCTTGC | Thr Ser Thr Arg Pro Pro | –
18 | 041307_32 (HMNMYI; printed: His Met Asn Met Tyr Ile) | TGCCATATGAATATGTATATTTGC | His Met Asn Met Tyr Ile | –
19 | 041307_35 (TGAGRS; printed: Thr Gly Ala Gly Arg Ser) | TGCACGGGGGCGGGGCGGTCGTGC | Thr Gly Ala Gly Arg Ser | –
